We go through one substance from publication PMC2173848.

In this assay the target is GST-Ypt1p (S. cerevisiae) (UniProt P01123). The assay is described as follows: pull-down.
GST-Ypt1p (S. cerevisiae), sequence (P01123 whole entry): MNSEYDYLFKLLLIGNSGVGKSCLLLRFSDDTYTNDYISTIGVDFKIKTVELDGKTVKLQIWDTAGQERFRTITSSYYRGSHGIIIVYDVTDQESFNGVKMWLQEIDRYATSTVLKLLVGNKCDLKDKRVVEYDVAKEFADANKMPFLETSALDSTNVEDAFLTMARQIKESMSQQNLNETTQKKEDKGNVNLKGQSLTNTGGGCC

For “purified Sec34/35 complex, P40094 1-801; P53271 1-262; Q06096 1-861; P53079 1-417; P53959 1-839”, the fold less binding than with GTP-loaded GST-Ypt1p is > 5 fold and the percent of the complex bound is > 50%.
